Reference: patent US20250243290A1
Where “and” joins values, the source holds several entries; their conditions need not be identical. Identical values can stand only once.

Columns and labels:
Experiment in all cases: peptide-array ELISA [Con't]
CAPEPGST2…2TSTSPTRC = biological target: CAPEPGST2…2TSTSPTRC
[1] = biological target: CAPEPGST2…2…
[2] = biological target: CDQVETQA2…2…
[3] = biological target: CG2RL2APLRK2RPGFCQA2TREQNRI2T2RPC
PE2LS2…2TREQNRIC = biological target: PE2LS2…2TREQNRIC
[4] = biological target: SKQEGCRL2APGGSGGL2…
TREQNRI2…2R = biological target: TREQNRI2…2R
VPE2LS2…2RPGW = biological target: VPE2LS2…2RPGW
[5] = biological target: VV2…
[6] = biological target: WNWVPE2…
2LS2…2RPG = biological target: 2LS2…2RPG
2LS2…2…2 = biological target: 2LS2…2…2
[7] = biological target: 2LSCGSR2…
2TREQNRI2…2R = biological target: 2TREQNRI2…2R
[8] = biological target: 2…
[9] = biological target: C22SK2…2CQA2TREQNRI2T2RPC
[10] = biological target: C2T2RPGWY2…2…
CAPLRK2…2TSTSPTRC = biological target: CAPLRK2…2TSTSPTRC
[11] = biological target: CAV2…2…
CDQVETQA2…2RLC = biological target: CDQVETQA2…2RLC
[12] = biological target: CGWY2ALSKQEG2RL2CQA2TREQNRI2T2RPC
[13] = biological target: CI2RPHQI2…2…
[14] = biological target: CLSKQEG2RL2APLRKCQA2TREQNRI2T2RPC
CNASMDAV2…2TREQNRI2T2RPC = biological target: CNASMDAV2…2TREQNRI2T2RPC
CNASMDAV2…2TSTSPTRC = biological target: CNASMDAV2…2TSTSPTRC
CNWVPE2LS2GSR2…2TSTSPTRC = biological target: CNWVPE2LS2GSR2…2TSTSPTRC
[15] = biological target: CQA2TREQNRI2T2RPCQA2TREQNRI2T2RPC
CQA2TREQNRI2T2…2RLC = biological target: CQA2TREQNRI2T2…2RLC
CQTAQM22SK2…2TSTSPTRC = biological target: CQTAQM22SK2…2TSTSPTRC
[16] = biological target: CTSSTDI2RPHQI2NVCAPLRK2…
[17] = biological target: CTSSTDI2RPHQI2NVCQA2TREQNRI2T2RPC
[18] = biological target: DI2…
EQNRI2…2RL = biological target: EQNRI2…2RL
NWVPE2…2T2 = biological target: NWVPE2…2T2
PE2LS2…2R = biological target: PE2LS2…2R
QEG2…2APGTFSN = biological target: QEG2…2APGTFSN
QNRI2…2R = biological target: QNRI2…2R
REQNRI2…2RL = biological target: REQNRI2…2RL
[19] = biological target: S2…2…
[20] = biological target: STDI2…
VPE2LS2…2R = biological target: VPE2LS2…2R
[21] = biological target: VPE2LSCGSR2…
[22] = biological target: …22SK2CAPLRK2…
…22SK2CQA2TREQNRI2T2RPC = biological target: …22SK2CQA2TREQNRI2T2RPC
…2LS2GCLSKQEG2RL2APLRKC = biological target: …2LS2GCLSKQEG2RL2APLRKC
[23] = biological target: …2RLCAPLRK2…
…2R = biological target: …2R
…2TREQNRI2T2RPC = biological target: …2TREQNRI2T2RPC
…2TSTSPTRC = biological target: …2TSTSPTRC
[24] = biological target: …2…2…
[25] = biological target: …2…

Sequence of …2TSTSPTRC (peptide, as listed by the source): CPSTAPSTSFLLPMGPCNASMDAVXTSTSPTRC
Sequence of DI2… (peptide, as listed by the source): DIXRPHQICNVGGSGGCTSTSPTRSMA
Sequence of …2R (peptide, as listed by the source): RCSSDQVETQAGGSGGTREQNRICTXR
Sequence of STDI2… (peptide, as listed by the source): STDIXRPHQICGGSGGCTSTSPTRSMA
Sequence of WNWVPE2… (peptide, as listed by the source): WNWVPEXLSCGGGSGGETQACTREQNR

agonistic TNFR2 antibody MR2-1
Raw luminescence data (CAPEPGST2…2TSTSPTRC): 213 | Raw luminescence data [1]: 196 | Raw luminescence data [2]: 201 | Raw luminescence data [3]: 215 | Raw luminescence data (PE2LS2…2TREQNRIC): 224 | Raw luminescence data [4]: 224 | Raw luminescence data (TREQNRI2…2R): 205 | Raw luminescence data (VPE2LS2…2RPGW): 222 | Raw luminescence data [5]: 209 | Raw luminescence data [6]: 220 | Raw luminescence data (2LS2…2RPG): 162 | Raw luminescence data (2LS2…2…2): 167 | Raw luminescence data [7]: 157 | Raw luminescence data (2TREQNRI2…2R): 164 | Raw luminescence data [8]: 170 | Raw luminescence data [9]: 158 | Raw luminescence data [10]: 161 | Raw luminescence data (CAPLRK2…2TSTSPTRC): 167 | Raw luminescence data [11]: 171 | Raw luminescence data (CDQVETQA2…2RLC): 157 | Raw luminescence data [12]: 158 | Raw luminescence data [13]: 165 | Raw luminescence data [14]: 158 | Raw luminescence data (CNASMDAV2…2TREQNRI2T2RPC): 157 | Raw luminescence data (CNASMDAV2…2TSTSPTRC): 164 | Raw luminescence data (CNWVPE2LS2GSR2…2TSTSPTRC): 161 | Raw luminescence data [15]: 166 | Raw luminescence data (CQA2TREQNRI2T2…2RLC): 171 | Raw luminescence data (CQTAQM22SK2…2TSTSPTRC): 164 | Raw luminescence data [16]: 158 | Raw luminescence data [17]: 166 | Raw luminescence data [18]: 166 | Raw luminescence data (EQNRI2…2RL): 159 | Raw luminescence data (NWVPE2…2T2): 168 | Raw luminescence data (PE2LS2…2R): 162 | Raw luminescence data (QEG2…2APGTFSN): 167 | Raw luminescence data (QNRI2…2R): 170 | Raw luminescence data (REQNRI2…2RL): 161 | Raw luminescence data [19]: 171 | Raw luminescence data [20]: 159 | Raw luminescence data (VPE2LS2…2R): 170 | Raw luminescence data [21]: 165 | Raw luminescence data [22]: 168 | Raw luminescence data (…22SK2CQA2TREQNRI2T2RPC): 158 | Raw luminescence data (…2LS2GCLSKQEG2RL2APLRKC): 164 | Raw luminescence data [23]: 165 | Raw luminescence data (…2R): 160 | Raw luminescence data (…2TREQNRI2T2RPC): 163 | Raw luminescence data (…2TSTSPTRC): 159 | Raw luminescence data [24]: 160 | Raw luminescence data [25]: 166 and 165
